Measured values published in publication PMC3920478, “Small molecule-mediated refolding and activation of myosin motor function” (eLife, 2014).
“Also recorded” adds a separate entry of the source.

Key:
phosphodiesterase III = test system: phosphodiesterase III; design: method as in Gambassi et al., 1993; settings: ref Gambassi et al., 1993; cited from earlier work
β-cardiac myosin = β-cardiac myosin (Sus scrofa, UniProt P79293); assay: Steady-state basal and actin-activated Mg2+-ATPase (NADH-coupled assay); type: biochemical, Porcine; settings: β-cardiac myosin S1, dose-dependence
Procedure: Rabbit fast skeletal muscle heavy meromyosin (HMM) was prepared as described by [Margossian and Lowey (1982)]. Porcine β-cardiac myosin was prepared essentially as described by [Pant et al. (2009)] and [Jacques et al. (2008)] and further purified by gel filtration. S1 and HMM fragments were produced by proteolytic digestion of the full-length proteins with 0.05 mg/ml papain (10 min, 25°C) for S1 and with 0.1 mg/ml TLCK-treated α-chymotrypsin (15 min, 25°C) for HMM. Reactions were stopped with specific protease inhibitors for papain (10 µM E−64) and chymotrypsin (10 µM chymostatin, 1 mM benzamidine). Proteolytic fragments were further purified by actin-coprecipitation. Pellets were washed twice and myosin was extracted from the pellets using ATP containing buffer. Gel filtration was used to further increase purity of myosin S1 and HMM fragments. His-tagged motor domain constructs of Dd myosin-2, Dd myosin-1B, Dd myosin-1C, Dd myosin-1D, Dd myosin-1E, Dd myosin-5b fused to two Dd α-actinin repeats substituting the light-chain binding domains ([Anson et al., 1996]) were expressed in Dd AX3-ORF + cells and purified by Ni^2+-chelate affinity chromatography ([Manstein and Hunt, 1995]).
Basal and actin-activated Mg^2+-ATPase activities were measured using the NADH-coupled assay described previously ([Furch et al., 1998]) adapted for higher throughput screens for a temperature controlled plate reader (Multiscan FC, Thermo Scientific, Waltham, MA) at 25°C. […] Control measurements were carried out in the absence of drug, as well as in the presence of according concentrations of the non-binding (−)-enantiomer EMD 57439 to account for possible absorption effects. […] Data points are mean values from 3 to 5 independent experiments. Error bars indicate standard deviations.

β-cardiac myosin S1 = target: T1, β-cardiac myosin S1 (Sus scrofa, UniProt P79293); assay: Microscale thermophoresis direct binding; design: species or system Porcine
T1 construct: S1 and HMM fragments were produced by proteolytic digestion of the full-length proteins with 0.05 mg/ml papain; from tissue; host or cells: porcine cardiac muscle
Excerpt: Proteolytic fragments were further purified by actin-coprecipitation.

F-actin = F-actin (UniProt P68135)

β-cardiac myosin, sequence (P79293 1-810 limits assumed): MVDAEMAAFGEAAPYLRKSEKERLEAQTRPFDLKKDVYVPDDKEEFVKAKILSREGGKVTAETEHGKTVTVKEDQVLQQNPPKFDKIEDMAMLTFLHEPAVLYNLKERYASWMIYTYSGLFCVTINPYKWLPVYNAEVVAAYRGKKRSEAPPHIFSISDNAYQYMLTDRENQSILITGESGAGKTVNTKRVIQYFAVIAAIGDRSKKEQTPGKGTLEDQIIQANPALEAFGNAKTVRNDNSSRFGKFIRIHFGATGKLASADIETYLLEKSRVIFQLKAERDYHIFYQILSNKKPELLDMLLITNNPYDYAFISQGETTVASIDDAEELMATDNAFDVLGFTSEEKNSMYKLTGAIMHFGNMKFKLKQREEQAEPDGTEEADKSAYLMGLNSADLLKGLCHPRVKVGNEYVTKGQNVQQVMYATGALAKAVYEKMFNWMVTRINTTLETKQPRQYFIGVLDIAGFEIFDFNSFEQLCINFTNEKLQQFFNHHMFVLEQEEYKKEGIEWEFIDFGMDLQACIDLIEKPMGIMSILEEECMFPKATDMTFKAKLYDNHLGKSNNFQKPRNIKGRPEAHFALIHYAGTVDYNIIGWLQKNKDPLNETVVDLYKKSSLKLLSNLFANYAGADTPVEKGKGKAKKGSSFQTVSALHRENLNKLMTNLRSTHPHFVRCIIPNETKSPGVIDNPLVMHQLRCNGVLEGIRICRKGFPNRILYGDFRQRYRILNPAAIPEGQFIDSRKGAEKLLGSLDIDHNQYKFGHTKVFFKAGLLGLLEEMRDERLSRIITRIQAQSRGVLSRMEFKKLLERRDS
T1 sequence (P79293 1-843 limits assumed): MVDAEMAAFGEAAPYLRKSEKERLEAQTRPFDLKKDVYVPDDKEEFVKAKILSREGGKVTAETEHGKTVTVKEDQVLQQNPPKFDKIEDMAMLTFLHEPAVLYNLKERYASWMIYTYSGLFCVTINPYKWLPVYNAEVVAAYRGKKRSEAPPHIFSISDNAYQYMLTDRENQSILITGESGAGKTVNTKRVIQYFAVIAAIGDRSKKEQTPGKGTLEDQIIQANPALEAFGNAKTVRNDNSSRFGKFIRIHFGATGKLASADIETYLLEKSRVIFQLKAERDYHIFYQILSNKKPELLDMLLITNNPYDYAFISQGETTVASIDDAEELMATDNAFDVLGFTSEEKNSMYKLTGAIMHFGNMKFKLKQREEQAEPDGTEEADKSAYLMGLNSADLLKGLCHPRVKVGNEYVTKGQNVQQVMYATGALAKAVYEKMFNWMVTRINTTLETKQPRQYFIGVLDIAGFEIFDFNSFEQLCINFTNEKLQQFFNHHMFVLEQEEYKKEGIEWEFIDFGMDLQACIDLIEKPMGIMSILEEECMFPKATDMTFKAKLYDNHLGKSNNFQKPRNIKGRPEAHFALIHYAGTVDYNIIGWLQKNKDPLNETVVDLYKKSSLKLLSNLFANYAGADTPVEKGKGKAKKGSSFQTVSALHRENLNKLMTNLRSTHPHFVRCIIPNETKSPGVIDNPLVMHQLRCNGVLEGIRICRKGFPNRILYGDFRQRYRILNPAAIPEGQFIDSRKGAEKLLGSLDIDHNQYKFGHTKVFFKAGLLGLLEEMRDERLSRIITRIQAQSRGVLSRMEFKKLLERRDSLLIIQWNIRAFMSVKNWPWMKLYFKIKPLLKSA

Row | Molecule | Phosphodiesterase III inhibition (phosphodiesterase III) | Activation of the actin-activated ATPase (in words) (β-cardiac myosin) | Binding (in words) (β-cardiac myosin S1) | K M(Actin): F-actin concentration for half-maximal activation of the steady-state ATPase, control without EMD 57033 (F-actin) [µM] | K M(Actin): F-actin concentration for half-maximal activation of the steady-state ATPase, with 25 µM EMD 57033 (F-actin) [µM] | kcat/K M(Actin) of the actin-activated ATPase, calculated ratio, control without EMD 57033 (F-actin) [µM⁻¹ s⁻¹] | kcat/K M(Actin) of the actin-activated ATPase, calculated ratio, with 25 µM EMD 57033 (F-actin) [µM^v1 s^−1]
1 | COc1ccc(C(=O)N2CCCc3cc(C4=NNC(=O)SC4C)ccc32)cc1OC (stereo not shown) [EMD 57439] | potent phosphodiesterase III inhibitor | Neither binding nor activation was observed; also recorded: no activation | Neither binding nor activation was observed | – | – | – | –
2 | β-cardiac myosin (from UniProt P79293 1-1935) (natural protein) | – | – | – | 36.8 | 3.6 | 0.00326 | 0.0528
